Data set [1] deals with HeLa Kyoto. The data set is described as follows: solubility change mitosis vs G1/S (difference of NP-40 vs SDS log2 ratios) (log2 ratio difference); higher = more soluble in mitosis.
The subject of data set [2] is HeLa Kyoto. As to the kind of experiment: melting temperature (median over replicates), in situ; higher = more thermally stable.
In data set [3] the test system is HeLa Kyoto. The data set is described as follows: solubility in G1/S (NP-40 vs SDS abundance) (log2 ratio); higher = more soluble. The conditions noted are these: cell cycle stage: G1/S.
Data set [4] relates to HeLa Kyoto. As to the kind of experiment: thermal stability score vs G1/S (z-score of summed log2 fold changes over temperatures); higher = more thermally stable than in G1/S.
Setting [5] is: cell cycle stage: early G1 (4.5 h after nocodazole release).
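For melting temperature (median over replicates), in situ in this document: HeLa Kyoto cells synchronized by double thymidine or nocodazole block, proteins quantified by TMT10plex mass spectrometry, three independent biological replicates.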
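For solubility change mitosis vs G1/S (difference of NP-40 vs SDS log2 ratios) in this document: synchronized HeLa Kyoto cells (double thymidine block for G1/S, nocodazole release for mitosis), protein amounts in NP-40 versus SDS lysates quantified by mass spectrometry, three biological replicates.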
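For solubility in G1/S (NP-40 vs SDS abundance) in this document: HeLa Kyoto cells arrested at G1/S by double thymidine block, proteins quantified by TMT10plex mass spectrometry in mild NP-40 versus SDS extracts, three biological replicates.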
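For thermal stability score vs G1/S (z-score of summed log2 fold changes over temperatures) in this document: synchronized HeLa Kyoto cells, proteins quantified by TMT10plex mass spectrometry, three biological replicates, mitosis taken 0.5 h after nocodazole release, G1/S directly after double thymidine block.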

As to “MSDGFDRAPGAGRGRSRGLGRGGGGPEGGGFPNGAGPAERARHQPPQPKAPGFLQPPPLRQPRTTPPPGAQCEVPASPQRPSRPGALPEQTRPLRAPPSSQDKIPQQNSESAMAKPQVVVAPVLMSKLSVNAPEFYPSGYSSSYTESYEDGCEDYPTLSEYVQDFLNHLTEQPGSFETEIEQFAETLNGCVTTDDALQELVELIYQQATSIPNFSYMGARLCNYLSHHLTISPQSGNFRQLLLQRCRTEYEVKDQAAKGDEVTRKRFHAFVLFLGELYLNLEIKGTNGQVTRADILQVGLRELLNALFSNPMDDNLICAVKLLKLTGSVLEDAWKEKGKMDMEEIIQRIENVVLDANCSRDVKQMLLKLVELRSSNWGRVHATSTYREATPENDPNYFMNEPTFYTSDGVPFTAADPDYQEKYQELLEREDFFPDYEENGTDLSGAGDPYLDDIDDEMDPEIEEAYEKFCLESERKRKQ [PAIP1]”, the “solubility change mitosis (log2)” value in data set [1] stood at 0.154. In addition, the melting temperature came to 52.9 °C in data set [2] (cell cycle stage: G1/S) and 52.8 °C in data set [2] (cell cycle stage: mitosis). The “solubility in G1/S (log2)” value in data set [3] worked out at 0.466. Also, the values for the thermal stability score in data set [4] (setting [5]) and in data set [4] (cell cycle stage: mitosis) were 1.49 and 1.64, respectively.

In the case of “MSDKDDIETPLLTEAAPILEDGNCEPAKNSESVDQGAKPESKSEPVVSTRKRPETKPSSDLETSKVLPIQDNVSKDVPQTRWGYWGSWGKSILSSASATVATVGQGISNVIEKAETSLGIPGPSEISTEVKYVAGETNAKENENSSPVAGAFGVFSTISTAVQSTGKSVISGGLDALEFIGKKTMDVIAEGDPGFKRTKGLMNRNATLSQVLREAKEKEEIRTSNEVTVETDKKTHYGLLFDEFQGLSHLEALEMLSQESEIKVKSILNSLSGEELETLKVELEQLKETFSLAEFCEEEEEEKKGDEDFTKDITELFSQLHVSSKPEKLARARNTAHEWIRKSLTKPLAENEEGEKQSEAENTEQVNKNSIEDIHAFAIRSLAELTACSIELFHKTAALVLHGRKQEVTAIERSQTLSQMTIVLCKELSSLSKEFTTCLTTAGVKEMADVLNPLITAVFLEASNSASYIQDAFQLLLPVLEISLIENKIESHRHELQGQKPLLEH [FAM114A2]”, the “solubility change mitosis (log2)” value in data set [1] is -0.0154. For the same sequence, the results for the melting temperature in data set [2] (cell cycle stage: G1/S) and in data set [2] (cell cycle stage: mitosis) were 52.3 °C and 52 °C, respectively. Also, the “solubility in G1/S (log2)” value in data set [3] is 0.326. Further, the thermal stability score worked out at 0.464 in data set [4] (setting [5]) and 0.0988 in data set [4] (cell cycle stage: mitosis).

Turning to “MSDLQAAEGPGSWSPTARPGSAGGVGDCQGVEGSQAAASENEDLENKDTSLLASATDPEPCSSPHRPQMVSPVSKDATEDLRKATGPLEAQALVKQDLLPADQAQVLNEMAKYQVPQRSGDIVMIQSEHTGAIDVLSADLESADLLGDHRKVSPPLMAPPCIWTFAKVKEFKSKLGKEKNSRLVVKRGEVVTIRVPTHPEGKRVCWEFATDDYDIGFGVYFDWTPVTSTDITVQVSDSSDDEDEEEEEEEEIEEPVPAGDVERGSRSSLRGRYGEVMPVYRRDSHRDVQAGSHDYPGEGIYLLKFDNSYSLLRNKTLYFHIYYTS [TMED8]”, in data set [1], the “solubility change mitosis (log2)” value is -0.104. Moreover, the figures for the melting temperature in data set [2] (cell cycle stage: G1/S) and in data set [2] (cell cycle stage: mitosis) were 50.4 °C and 50.3 °C, respectively. The “solubility in G1/S (log2)” value in data set [3] amounted to 0.328. For the same sequence, the values for the thermal stability score in data set [4] (setting [5]) and in data set [4] (cell cycle stage: mitosis) were -0.422 and -0.616, respectively.

Turning to “MSDTAVADTRRLNSKPQDLTDAYGPPSNFLEIDIFNPQTVGVGRARFTTYEVRMRTNLPIFKLKESCVRRRYSDFEWLKNELERDSKIVVPPLPGKALKRQLPFRGDEGIFEESFIEERRQGLEQFINKIAGHPLAQNERCLHMFLQEEAIDRNYVPGKVRQ [SNX12]”, the “solubility change mitosis (log2)” value in data set [1] is 0.12. For the same sequence, the values for the melting temperature in data set [2] (cell cycle stage: G1/S) and in data set [2] (cell cycle stage: mitosis) were 49.2 °C and 50.7 °C, respectively. Further, the “solubility in G1/S (log2)” value in data set [3] amounted to 0.348. In addition, the thermal stability score was -0.501 in data set [4] (setting [5]) and -1.12 in data set [4] (cell cycle stage: mitosis).

For “MSDTLTADVIGRRVEVNGEHATVRFAGVVPPVAGPWLGVEWDNPERGKHDGSHEGTVYFKCRHPTGGSFIRPNKVNFGTDFLTAIKNRYVLEDGPEEDRKEQIVTIGNKPVETIGFDSIMKQQSQLSKLQEVSLRNCAVSCAGEKGGVAEACPNIRKVDLSKNLLSSWDEVIHIADQLRHLEVLNVSENKLKFPSGSVLTGTLSVLKVLVLNQTGITWAEVLRCVAGCPGLEELYLESNNIFISERPTDVLQTVKLLDLSSNQLIDENQLYLIAHLPRLEQLILSDTGISSLHFPDAGIGCKTSMFPSLKYLVVNDNQISQWSFFNELEKLPSLRALSCLRNPLTKEDKEAETARLLIIASIGQLKTLNKCEILPEERRRAELDYRKAFGNEWKQAGGHKDPEKNRLSEEFLTAHPRYQFLCLKYGAPEDWELKTQQPLMLKNQLLTLKIKYPHQLDQKVLEKQLPGSMTIQKVKGLLSRLLKVPVSDLLLSYESPKKPGREIELENDLKSLQFYSVENGDCLLVRW [TBCE]”, in data set [1], the “solubility change mitosis (log2)” value was -0.101. Also, the melting temperature in data set [2] (cell cycle stage: G1/S) was determined as 47.9 °C; in data set [2] (cell cycle stage: mitosis) it was 48.4 °C. In addition, the “solubility in G1/S (log2)” value in data set [3] was 0.308. Besides, the figures for the thermal stability score in data set [4] (setting [5]) and in data set [4] (cell cycle stage: mitosis) were -0.0546 and 1.48, respectively.

Regarding “MSDTRRRVKVYTLNEDRQWDDRGTGHVSSTYVEELKGMSLLVRAESDGSLLLESKINPNTAYQKQQDTLIVWSEAENYDLALSFQEKAGCDEIWEKICQVQGKDPSVEVTQDLIDESEEERFEEMPETSHLIDLPTCELNKLEEIADLVTSVLSSPIRREKLALALENEGYIKKLLQLFQACENLENTEGLHHLYEIIRGILFLNKATLFEVMFSDECIMDVVGCLEYDPALAQPKRHREFLTKTAKFKEVIPITDSELRQKIHQTYRVQYIQDIILPTPSVFEENFLSTLTSFIFFNKVEIVSMLQEDEKFLSEVFAQLTDEATDDDKRRELVNFFKEFCAFSQTLQPQNRDAFFKTLAKLGILPALEIVMGMDDLQVRSAATDIFSYLVEFSPSMVREFVMQEAQQSDDDILLINVVIEQMICDTDPELGGAVQLMGLLRTLIDPENMLATTNKTEKSEFLNFFYNHCMHVLTAPLLTNTSEDKCEKDFFLKHYRYSWSFICTPSHSHSHSTPSSSISQDNIVGSNKNNTICPDNYQTAQLLALILELLTFCVEHHTYHIKNYIMNKDLLRRVLVLMNSKHTFLALCALRFMRRIIGLKDEFYNRYITKGNLFEPVINALLDNGTRYNLLNSAVIELFEFIRVEDIKSLTAHIVENFYKALESIEYVQTFKGLKTKYEQEKDRQNQKLNSVPSILRSNRFRRDAKALEEDEEMWFNEDEEEEGKAVVAPVEKPKPEDDFPDNYEKFMETKKAKESEDKENLPKRTSPGGFKFTFSHSASAANGTNSKSVVAQIPPATSNGSSSKTTNLPTSVTATKGSLVGLVDYPDDEEEDEEEESSPRKRPRLGS [PPP4R3B]”, the “solubility change mitosis (log2)” value in data set [1] is -0.181. The melting temperature stood at 49.6 °C in data set [2] (cell cycle stage: G1/S) and 49.5 °C in data set [2] (cell cycle stage: mitosis). For the same sequence, the “solubility in G1/S (log2)” value in data set [3] was found to be 0.0425. Also, the values for the thermal stability score in data set [4] (setting [5]) and in data set [4] (cell cycle stage: mitosis) were 1.17 and 1.76, respectively.
